The term EC50 denotes the midpoint of the concentration-response curve.

T1: TGFβ2 protein (GenScript Z03429) (human, UniProt P61812 303-414)
T1 construct: also called human TGF-β2
T1 sequence (looked up): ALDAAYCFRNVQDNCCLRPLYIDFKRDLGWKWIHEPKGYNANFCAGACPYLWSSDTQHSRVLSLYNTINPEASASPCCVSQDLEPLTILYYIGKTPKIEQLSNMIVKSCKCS

T2: TGFβ3 protein (GenScript Z03430) (human, UniProt P10600 301-412)
T2 construct: also called human TGF-β3
T2 sequence (looked up): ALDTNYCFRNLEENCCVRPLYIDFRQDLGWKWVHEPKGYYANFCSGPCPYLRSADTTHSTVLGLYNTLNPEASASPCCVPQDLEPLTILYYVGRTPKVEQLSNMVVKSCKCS

B1: B1C5 anti-TGFβ single domain heavy-chain antibody (variable region, linker peptide, human IgG1 heavy chain constant region) (Fc fusion)
heavy: EVQLVESGGGEVRPGGSLRLSCVVSGFTKDYGAIGWFRQAPGQEREGLGCIARKDGDTWSADSVKGRFTISRDNVRNTVYLQMNALKPEDRGVYYCAGDPSALYGCSDRSSEYQYWGQGTQVTVSS
notes: not shown: linker peptide (GGGGS)n, n=1, 2 or 3; human IgG1 heavy chain constant region, GenBank No. AK303185.1
B2: B1F8 anti-TGFβ single domain heavy-chain antibody (variable region, linker peptide, human IgG1 heavy chain constant region) (Fc fusion)
heavy: QVQLVESGGGLVQPGGSLRLSCAASGSIFGVFYMGWFRQAPGKQREMVAISTDDRTSYVDSVKGRFTISRDNAKNTLALQMNSLKPEDTAVYFCNLNQLGTDYWGPGTQVTVSS
notes: also called BIF8; not shown: linker peptide (GGGGS)n, n=1, 2 or 3; human IgG1 heavy chain constant region, GenBank No. AK303185.1
B3: B3F3 anti-TGFβ single domain heavy-chain antibody (variable region, linker peptide, human IgG1 heavy chain constant region) (Fc fusion)
heavy: B2 heavy with G16E, A23T, E46D, V59A
notes: as for B1
B4: B2C9 anti-TGFβ single domain heavy-chain antibody (variable region, linker peptide, human IgG1 heavy chain constant region) (Fc fusion)
heavy: EVQVVESGGGLVQPGGSLRLSCAASASVFSWSVMGWFRQAPGKQRELVAISSGDRETYADSVKGRFTISRDNAKNTVYLQMDTLKPEDTAVYFCNAYVPVGESRGDYWGQGTQVTVSS
notes: as for B1
B5: B2A1 anti-TGFβ single domain heavy-chain antibody (variable region, linker peptide, human IgG1 heavy chain constant region) (Fc fusion)
heavy: QVQLVESGGGLVQPGGSLRLSCAASGITFSHYDMAWFRQAPEKQRELVALITSGGKTAYADSVKGRFAISRDNAKNTVYLQMNSLKAGDTAVYYCNAHWVLTSQYWGQGTQVTVSS
notes: as for B1
B6: B2H1 anti-TGFβ single domain heavy-chain antibody (variable region, linker peptide, human IgG1 heavy chain constant region) (Fc fusion)
heavy: QLQLVESGGGLVQPGESLRLSCAASGIIFSASTMAWFRQAPGKQRELVALITDGDRTNYADSVKGRFTISRDNAENTVYLQMTELKFEDTAVYYCNAFWLKAYWGQGTQVTVSS
notes: as for B1
B7: B1B8 anti-TGFβ single domain heavy-chain antibody (variable region, linker peptide, human IgG1 heavy chain constant region) (Fc fusion)
heavy: EVQVVESGGGLVQPGGSLTLSCVASGFAFSFTPMRWVRQAPGKGLEWVSSISIRGDTTDYADSVKGRFTISRDNAKNTLYLQMNSLKPEDTAVYYCSRGSSISTSTERTQGTQVTVSS
notes: as for B1
B8: B2G8 anti-TGFβ single domain heavy-chain antibody (variable region, linker peptide, human IgG1 heavy chain constant region) (Fc fusion)
heavy: QVQLVESGGGLVQPGGSLRLSCAASGISFSYYDMGWFRQAPGKQRELVAIVTSGGRTNYADSVKGRFTISRETAKSTMYLQMNSLKSEDTGVYYCNAHWIVTTDYWGQGTQVTVAS
notes: as for B1
B9: B2C2 anti-TGFβ single domain heavy-chain antibody (variable region, linker peptide, human IgG1 heavy chain constant region) (Fc fusion)
heavy: QLQLVESGGGLVQPGGSLRLSCAGSGIAFSRVTMAWSRQAPGKQRELVALITDGNRSAYVDSVKGRFTISRDNTKKTMSLQMNDLKPEDTAVYYCVATDWVPTRRDYWGQGTQVTVSS
notes: as for B1
B10: B1B7 anti-TGFβ single domain heavy-chain antibody (variable region, linker peptide, human IgG1 heavy chain constant region) (Fc fusion)
heavy: QVQLVESGGGLVQPGGSLTLSCTASGSMFSFYTMGWYRQATGKQRELVAGISLGGETTYAPSVKDRFTISRDNAKNTVYLQMNSLKPEDTALYNCNAYWGEDYWGQGTQVTVSS
notes: as for B1
B11: B2A9 anti-TGFβ single domain heavy-chain antibody (variable region, linker peptide, human IgG1 heavy chain constant region) (Fc fusion)
heavy: QLQLVESGGGLVQPGGSLRLSCTASGSTFEIYPIYAMAWFRQTPGKQRELVALTTDVKTNYADSVKGRFTISRDNAKNTVYLQMNMLQPEDTAVYVCNVGVVRGGLQNYWGQGTQVTVSS
notes: as for B1
B12: B2A2 anti-TGFβ single domain heavy-chain antibody (variable region, linker peptide, human IgG1 heavy chain constant region) (Fc fusion)
heavy: EVQVVESGGAAVQPGESLRLSCAASGSIFNTATMGWFRQAPGKQREMVAIITDGGRTNYADSVKGRFTISRDATKNTVYLQMNSLNPGDTAVYYCNALTIVPRSSIYWGQGTQVTVSS
notes: as for B1
B13: B3D6 anti-TGFβ single domain heavy-chain antibody (variable region, linker peptide, human IgG1 heavy chain constant region) (Fc fusion)
heavy: EVQLVESGGGLVQAGGSLRLSCAASGRSFSSLAVGWFRQPPGKKREIVAAVNWSGTSTYYPDSVKGRFSISRDNTKNTVYLQMNSLKPEDTAVYYCAADPDLRWLKLWGYEYWGQGTQVTVSS
notes: as for B1
B14: B1C5 heavy chain single-domain antibody (VHH)
VHH: B1 heavy
notes: Tested as crude supernatant of IPTG-induced E. coli TG1 carrying the pComb3XSS clone
B15: B2C9 heavy chain single-domain antibody (VHH)
VHH: B4 heavy
notes: as for B14
B16: B2H1 heavy chain single-domain antibody (VHH)
VHH: B6 heavy
notes: as for B14
B17: B1B8 heavy chain single-domain antibody (VHH)
VHH: B7 heavy
notes: as for B14
B18: B3D2 heavy chain single-domain antibody (VHH)
VHH: QLQLVESGGGLVQPGGSLTLSCLASGFTFSHYPMSWVRQAPGKGLEWVSVIGSDGAIKHYSDSVKGRFAISRDNAKNTLYLQMNSLKPEDTAVYYCAEGDSRYVRNRARGQGTQVTVSS
notes: as for B14
B19: B2A9 heavy chain single-domain antibody (VHH)
VHH: B11 heavy
notes: as for B14
B20: B2A2 heavy chain single-domain antibody (VHH)
VHH: B12 heavy
notes: as for B14

Where a chain is given by its changes, count along the chain named.

Chain of BSA (P02769 25-607 limits assumed): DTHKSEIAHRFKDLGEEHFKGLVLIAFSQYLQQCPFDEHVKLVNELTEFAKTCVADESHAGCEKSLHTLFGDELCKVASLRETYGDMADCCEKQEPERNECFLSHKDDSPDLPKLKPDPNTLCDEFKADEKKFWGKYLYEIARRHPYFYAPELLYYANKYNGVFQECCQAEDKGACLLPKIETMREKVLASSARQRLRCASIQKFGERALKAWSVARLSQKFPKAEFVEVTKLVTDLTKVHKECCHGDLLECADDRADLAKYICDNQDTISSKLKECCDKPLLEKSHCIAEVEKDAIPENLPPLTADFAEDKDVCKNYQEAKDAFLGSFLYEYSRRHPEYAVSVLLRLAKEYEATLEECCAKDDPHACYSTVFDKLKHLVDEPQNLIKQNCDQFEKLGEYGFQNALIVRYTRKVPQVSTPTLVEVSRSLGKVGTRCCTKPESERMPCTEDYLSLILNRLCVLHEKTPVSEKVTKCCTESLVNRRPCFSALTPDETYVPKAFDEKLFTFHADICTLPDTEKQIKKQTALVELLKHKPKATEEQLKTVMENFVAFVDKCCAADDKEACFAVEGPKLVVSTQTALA

The target in one assay is T3, TGFβ1 protein (GenScript Z03411) (human, UniProt P01137 279-390).
T3 construct: also called human TGF-β1; TGFβ1 antigen
T3 sequence (P01137 279-390 limits assumed, one chain of several): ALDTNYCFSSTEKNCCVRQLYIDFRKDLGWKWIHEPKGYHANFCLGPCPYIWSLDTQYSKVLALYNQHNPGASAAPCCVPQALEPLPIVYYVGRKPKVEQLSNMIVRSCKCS
Nature of the assay: ELISA; plate coated with human TGF-β1; antibody titrated; HRP anti-human Fc. The protocol:
(§1) A microplate was coated with 2 μL/well of the human TGF-β1/2/3 protein solution, respectively, at 4° C. overnight; the supernatant was discarded, 300 μL of a blocking solution (PBS containing 3% BSA) was added to each well, and the plate was blocked at 37° C. for 2 h; the antibodies were gradiently diluted, and the diluent was PBS containing 1% BSA. For example, the initial concentration of the antibody dilution was 500 nM, and diluted 10-fold to obtain 8 concentration gradients. The diluted antibody was added to the well of the microplate at 200 μL per well, the plate was left to stand and incubated at room temperature for 2 h, and the supernatant was discarded; the plate was washed for 3 times with 200 μL/well PBST (PBS containing 0.1% Tween 20); a diluted HRP-labeled anti-human Fc secondary antibody (SIGMA, A8667) was added, the secondary antibody was used after a 1:20000 dilution, the diluent was PBS containing 1% BSA, the volume was 100 μL/well, and the plate was incubated at room temperature for 1 h; the plate was washed for 5 times with 200 μL/well PBST; a TMB chromogenic solution (BD, 55214) was added at 100 μL/well for color development at 37° C. for 8 min. 2 M HCl stop solution was added at 100 μL/well. After the addition of the stop solution, the 450 nm values were read using a microplate reader within 30 min. Data were analyzed using GraphPad Prism 6.0 software and avidity fitting was performed to give EC50 values.
For orientation: ELISA stands for enzyme-linked immunosorbent assay.
For B1, it took 0.442 nM to reach a half-maximal effect (EC50).

For B2, the EC50 was 0.785 nM.

B3 yielded an EC50 of 1.48 nM.

On to B4, for which the concentration for a half-maximal effect (EC50) worked out at 4.83 nM.

B5: the concentration for a half-maximal effect (EC50) was 3.82 nM.

The molecule B6 had an EC50 of 130 nM.

B7 showed a concentration giving a half-maximal response (EC50) of 0.533 nM.

As to B8, the midpoint of the response, the EC50, lay at 1.72 nM.

As to B9, the response was half-maximal at 1.25 nM (EC50).

As to B10, the EC50 was found to be 7.01 nM.

Turning to B11, the 50% effective concentration (EC50) was 5.43 nM.

As for B12, the EC50 came to 48 nM.

Molecule B13 displayed an EC50 of 0.747 nM.

Another assay deals with T1, TGFβ2 protein (GenScript Z03429). As to the kind of experiment: ELISA; plate coated with human TGF-β2; antibody titrated; HRP anti-human Fc. The protocol: as §1
As for B1, the EC50 was found to be 1.85 nM.

The molecule B2 displayed an EC50 of 1.42 nM.

B3 came in with an EC50 of 1.62 nM.

For the molecule B4, the EC50 worked out at 1.42 nM.

B5 displayed an EC50 of 1.07 nM.

B6 registered an EC50 of 1.54 nM.

Molecule B7 returned an EC50 of 0.464 nM.

Take B8: a half-maximal effect (EC50) was put at 1.73 nM.

For the molecule B9, the EC50 was determined as 1.42 nM.

With B10, a half-maximal effect (EC50) was put at 148 nM.

Take B11: the response was half-maximal at 1.25 nM (EC50).

The molecule B12 registered a concentration giving a half-maximal response (EC50) of 1.18 nM.

B13 registered an EC50 of 0.939 nM.

The target in another assay is T2, TGFβ3 protein (GenScript Z03430). Nature of the assay: ELISA; plate coated with human TGF-β3; antibody titrated; HRP anti-human Fc. The protocol:
as §1
In turn, B1 registered an EC50 of 0.546 nM.

Consider B2, for which the EC50 came out at 1.29 nM.

As for B3, the EC50 is 1.46 nM.

B4: the EC50 amounted to 1.21 nM.

B5 gave an EC50 of 1.25 nM.

With B6, the midpoint of the response, the EC50, lay at 1.71 nM.

Regarding B7, a half-maximal effect (EC50) was put at 0.817 nM.

Molecule B8 came in with a concentration giving a half-maximal response (EC50) of 1.47 nM.

As for B9, the concentration giving a half-maximal response (EC50) worked out at 1.43 nM.

The molecule B10 displayed an EC50 of 162 nM.

In turn, B11 returned an EC50 of 1.46 nM.

For B12, the EC50 is 1.3 nM.

Regarding B13, a half-maximal effect (EC50) was put at 1.22 nM.

For a further assay, the target named is T3, TGFβ1 protein (GenScript Z03411). Nature of the assay: ELISA; plate coated with TGFβ1; E. coli supernatant; HRP anti-VHH. The protocol: A microplate was coated with 2 μL/well of the TGFβ1 protein solution and BSA, respectively, at 4° C. overnight; the supernatant was discarded, 300 μL of a blocking solution (PBS containing 3% BSA) was added to each well, and the plate was blocked at 37° C. for 2 h; the supernatant collected by centrifugation was added to the well of the microplate at 200 μL per well, the plate was left to stand and incubated at room temperature for 2 h, and the supernatant was discarded; the plate was washed for 3 times with 200 μL/well PBST (PBS containing 0.1% Tween 20); a diluted HRP-labeled anti-VHH secondary antibody (Genscript, A01861) was added, the secondary antibody was used after a 1:10000 dilution, the diluent was PBS containing 1% BSA, the volume was 100 μL/well, and the plate was incubated at room temperature for 1 h; the plate was washed for 5 times with 200 μL/well PBST; a TMB chromogenic solution (BD, 55214) was added at 100 μL/well for color development at 37° C. for 8 min. 2 M HCl stop solution was added at 100 μL/well. After the addition of the stop solution, the 450 nm values were read using a microplate reader within 30 min.
With B14, the “OD value of binding to TGFβ1” value came to 2.08 OD 450 nm.

B15: the “OD value of binding to TGFβ1” value worked out at 1.88 OD 450 nm.

For B16, the “OD value of binding to TGFβ1” value came out at 2.06 OD 450 nm.

As for B17, the “OD value of binding to TGFβ1” value is 1.92 OD 450 nm.

In the case of B18, the “OD value of binding to TGFβ1” value was found to be 1.99 OD 450 nm.

On to B19, for which the “OD value of binding to TGFβ1” value was 1.92 OD 450 nm.

As for B20, the “OD value of binding to TGFβ1” value worked out at 1.69 OD 450 nm.

The next assay has as its target BSA (UniProt P02769). Nature of the assay: ELISA; plate coated with BSA (control); E. coli supernatant; HRP anti-VHH.
For the molecule B14, the OD value of binding to BSA was 0.052 OD 450 nm.

With B15, the OD value of binding to BSA came out at 0.055 OD 450 nm.

Molecule B16 showed an OD value of binding to BSA of 0.057 OD 450 nm.

Turning to B17, the OD value of binding to BSA was determined as 0.063 OD 450 nm.

Molecule B18 gave an OD value of binding to BSA of 0.061 OD 450 nm.

The molecule B19 displayed an OD value of binding to BSA of 0.061 OD 450 nm.

The molecule B20 yielded an OD value of binding to BSA of 0.064 OD 450 nm.

Source of the values: patent publication US20250026820A1 (WUHAN YZY BIOPHARMA, published 2025).
